Reference: article PMC5080453, “Structural characterization of twisted gastrulation provides insights into opposing functions on the BMP signalling pathway” (Matrix Biology, 2016)

T1: ΔN-chordin (human chordin construct lacking the N-terminal part) (human, UniProt Q9H2X0 129-955)
T1 construct: chordin, human, ΔN-chordin: partially cleaved chordin fragment lacking the N-terminus and containing the C-terminal vWC domains; source: HEK 293-EBNA cells, as previously described [13]
T1 sequence (looked up): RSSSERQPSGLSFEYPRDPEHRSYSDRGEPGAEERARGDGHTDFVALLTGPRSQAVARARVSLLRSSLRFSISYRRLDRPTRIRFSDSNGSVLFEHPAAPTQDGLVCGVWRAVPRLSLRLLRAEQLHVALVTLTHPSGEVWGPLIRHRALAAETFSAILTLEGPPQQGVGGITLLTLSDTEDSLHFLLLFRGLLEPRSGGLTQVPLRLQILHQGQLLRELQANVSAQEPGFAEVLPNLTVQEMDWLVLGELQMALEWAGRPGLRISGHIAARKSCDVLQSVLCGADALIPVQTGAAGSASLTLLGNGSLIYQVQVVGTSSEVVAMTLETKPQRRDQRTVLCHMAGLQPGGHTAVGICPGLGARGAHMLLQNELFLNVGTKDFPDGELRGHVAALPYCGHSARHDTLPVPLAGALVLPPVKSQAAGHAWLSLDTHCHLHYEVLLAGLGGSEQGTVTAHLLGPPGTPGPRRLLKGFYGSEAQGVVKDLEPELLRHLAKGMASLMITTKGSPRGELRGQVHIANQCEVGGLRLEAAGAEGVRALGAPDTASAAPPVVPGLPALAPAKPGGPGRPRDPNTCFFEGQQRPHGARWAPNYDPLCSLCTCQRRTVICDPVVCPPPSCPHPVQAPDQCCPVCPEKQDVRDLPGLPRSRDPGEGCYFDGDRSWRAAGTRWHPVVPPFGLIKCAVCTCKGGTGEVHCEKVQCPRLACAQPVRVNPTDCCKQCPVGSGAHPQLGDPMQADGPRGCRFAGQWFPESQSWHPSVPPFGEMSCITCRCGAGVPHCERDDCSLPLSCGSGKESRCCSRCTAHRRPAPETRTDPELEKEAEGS

B1: human twisted gastrulation (Tsg), native (glycosylated) (natural protein, UniProt Q9GZX9 26-223, looked up)
chain: CNKALCASDVSKCLIQELCQCRPGEGNCSCCKECMLCLGALWDECCDCVGMCNPRNYSDTPPTSKSTVEELHEPIPSLFRALTEGDTQLNWNIVSFPVAEELSHHENLVSFLETVNQPHHQNVSVPSNNVHAPYSSDKEHMCTVVYFDDCMSIHQCKISCESMGASKYRWFHNACCECIGPECIDYGSKTVKCMNCMF
modifications: N-linked glycans (three predicted N-linked glycosylation sites)
notes: twisted gastrulation (Tsg), human, generated by PCR from image clone Q9GZX9; a thrombin cleavage site stands before the C-terminal His6 tag; For MST it was labelled with NT647 (Red-NHS kit); Monomer by MALS, AUC and SAXS; also called native Tsg
B2: chordin vWC2–3 (residues 701–860) (domain or fragment, human, UniProt Q9H2X0 701-860, looked up)
chain: DPNTCFFEGQQRPHGARWAPNYDPLCSLCTCQRRTVICDPVVCPPPSCPHPVQAPDQCCPVCPEKQDVRDLPGLPRSRDPGEGCYFDGDRSWRAAGTRWHPVVPPFGLIKCAVCTCKGGTGEVHCEKVQCPRLACAQPVRVNPTDCCKQCPVGSGAHPQL
notes: chordin, human, vWC2–3, residues 701–860, generated by PCR from full-length human chordin; thrombin cleavage site before the C-terminal His6 tag
B3: chordin vWC1 (residues 50–128) (domain or fragment, human, UniProt Q9H2X0 50-128, looked up)
chain: GCTFGGKVYALDETWHPDLGEPFGVMRCVLCACEAPQWGRRTRGPGRVSCKNIKPECPTPACGQPRQLPGHCCQTCPQE
notes: chordin, human, vWC1, residues 50–128, generated by PCR from full-length human chordin; thrombin cleavage site before the C-terminal His6 tag

Assays:
Settings in all cases: both partners purified
[1] = target: T1, ΔN-chordin (human chordin construct …); assay: SPR; ProteOn XPR36, GLC chip; Tsg immobilised by amine coupling (300 RU for ΔN-chordin and vWC2–3, 800 RU for vWC1-4CHRD and vWC1); chordin constructs injected at increasing concentrations; 25 °C, 10 mM HEPES, 150 mM NaCl, 3 mM EDTA, 0.05% Tween-20, pH 7.4, 50 μl/min; ΔN-chordin fitted to a 1:1 Langmuir model, vWC2–3 by equilibrium analysis; triplicate
[2] = target: B1; assay: as above
[3] = target: B1; assay: MST; 15 nM NT647-labelled Tsg mixed with serial dilutions of vWC1 from 7 μM; 50 mM Tris, 150 mM NaCl, 10 mM MgCl2, 0.05% Tween-20, pH 7.4; Monolith NT.115Pico, 20% LED, 20% MST power; triplicate

## B1
[1]
  Kd: 0.00308 µM

## B2
[2]
  Kd: 0.0264 µM

## B3
[3]
  Kd: 0.322 µM
